According to patent US20250297003A1:

Target: sialic acid-binding immunoglobulin-like lectin-9 (Siglec-9), human, on mast cells (human) (UniProt Q9Y336)
Assay: cell-based or functional assay

UniProt Q9Y336, sequence (Q9Y336 18-463): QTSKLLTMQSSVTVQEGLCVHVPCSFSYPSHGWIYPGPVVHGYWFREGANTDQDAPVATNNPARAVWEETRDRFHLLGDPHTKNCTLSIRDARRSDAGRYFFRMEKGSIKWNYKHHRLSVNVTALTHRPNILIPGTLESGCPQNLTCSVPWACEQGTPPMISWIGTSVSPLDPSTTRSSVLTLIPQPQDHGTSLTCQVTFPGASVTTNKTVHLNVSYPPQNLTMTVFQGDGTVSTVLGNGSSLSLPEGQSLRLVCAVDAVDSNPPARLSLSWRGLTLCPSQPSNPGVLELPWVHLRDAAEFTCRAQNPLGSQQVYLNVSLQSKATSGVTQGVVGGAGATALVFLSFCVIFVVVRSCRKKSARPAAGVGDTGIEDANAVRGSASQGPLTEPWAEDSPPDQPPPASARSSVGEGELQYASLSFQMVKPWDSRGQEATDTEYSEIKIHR

Substance: mouse anti-human Siglec-9 monoclonal antibody (clone 191240, R&D Systems)
- inhibition of MCP-1 release by HSCMCs (Siglec-9 co-crosslinked with FcεRI by a secondary antibody): 46.5%
- percentage of surface Siglec-9 signal lost (HSCMCs, 24 h, delayed secondary staining): 30%
- percentage of surface Siglec-9 signal lost (LAD2 cells, 1 h, delayed secondary staining): 30%
